# Source: US11697680B2, “Anti-GP73 antibodies and immunoconjugates” (CUREAB GMBH, priority 2016, dated 2023)
# B1: G2-2: scFv clone with human IgG1 heavy and human Igk light constant regions; VH/VL SEQ ID NO: 2 and 3; binds rGP73 AA 36-55 (antibody, V domains shown)
# VH: EVQLLQSGGGVVQPGRSLRLSCAASGFTFSSYGMSWVRQAPGKGLEWVAVISYDGSNKYYADSVKGRFTISRDNSKNTLYLQMNSLRAEDTAVYYCAREGSAGMDVWGQGTTVTVSS
# VL: DIQMTQPSSLSASPGASASLTCTLRSDISVGFHRIYWYQQKPGSPPQYLLRYKSDSDKQQGSGVPSRFSGSKDASANAGILLISGLQSDDEADYYCVIWHTSGVVFGGGTKVEIK
# modifications: human IgG1 and Igk constant regions not cited; G2-2 heavy chain variable region (VH); G2-2 light chain variable region (VL)
# Key:
# GP73 peptide: […] = molecular target: T1, GP73 peptide: […] (Homo sapiens, UniProt Q8NBJ4); test: Biacore surface plasmon resonance, data fit for 1:1 binding; conditions: Biacore 1:1 binding fit, GP73 peptide SSRSVDLQTRIMELEGRVRR
# T1 construct: GP73 peptide: […]
# Procedure: In one embodiment, Kd is measured using surface plasmon resonance assays using a BIACORE®-2000 or a BIACORE®-3000 (BIAcore, Inc., Piscataway, N.J.) at 25° C. with immobilized antigen CM5 chips at […] response units (RU). Briefly, carboxymethylated dextran biosensor chips (CM5, BIACORE, Inc.) are activated with N-ethyl-N′-(3-dimethylaminopropyl) carbodiimide hydrochloride (EDC) and N-hydroxysuccinimide (NHS) according to the supplier's instructions. Antigen is diluted with 10 mM sodium acetate, pH 4.8, to 5 μg/ml (−0.2 μM) before injection at a flow rate of 5 μl/minute to achieve approximately 10 response units (RU) of coupled protein. Following the injection of antigen, 1 M ethanolamine is injected to block unreacted groups. For kinetics measurements, two-fold serial dilutions of antibody (0.58 nM to 200 nM) are injected in PBS with 0.05% polysorbate 20 (TWEEN-20™) surfactant (PEST) at 25° C. at a flow rate of approximately 25 μl/min. Association rates (kon) and dissociation rates (koff) are calculated using a simple one-to-one Langmuir binding model (BIACORE® T100 Evaluation Software) by simultaneously fitting the association and dissociation sensorgrams. The equilibrium dissociation constant (Kd) is calculated as the ratio koff/kon. See, e.g., Chen et al., J. Mol. Biol. 293:865-881 (1999). If the on-rate exceeds […] s^−1 by the surface plasmon resonance assay above, then the on-rate can be determined by using a fluorescent quenching technique that measures the increase or decrease in fluorescence emission intensity (excitation=295 nm; emission=340 nm, 16 nm band-pass) at 25° C. of a 20 nM anti-antigen antibody in PBS, pH 7.2, in the presence of increasing concentrations of antigen as measured in a spectrometer, such as a stop-flow equipped spectrophometer (Aviv Instruments) or a 8000-series SLM-AMINCO™ spectrophotometer (ThermoSpectronic) with a stirred cuvette.
# peptide AA 36-55 of GP73 = peptide AA 36-55 of GP73 (Homo sapiens, UniProt Q8NBJ4); test: pH dependent peptide ELISA; type: binding; conditions: pH range of 7.4 to 5.4
# Procedure: A peptide ELISA was performed to test for pH dependency of binding to peptide AA 36-55 of GP73.
# ELISA was carried out in 96 well plates coated overnight with biotinylated peptide and blocked with 2% gelatine. Horse radish peroxidase labeled antibodies G2-1 (G2-1-HRP) or G2-2 (G2-2-HRP) were applied and incubated for 1.5 hours. For competition testing non labeled G2-1 or G2-2 was added at high concentration. For pH dependent binding the antibodies were applied in phosphate buffer pH 4.4, 5.4, 6.4 or 7.4. After extensive washing a chromogenic substrate (TMB Amersham) was added to detect peroxidase. The reaction was stopped and absorbance was read at 450 nm.
# [1] = tested on: HuH7 (human hepatocellular carcinoma); test: Cell viability / proliferation with PrestoBlue reagent; type: cell-based; conditions: 0.125 mg/ml to 2 mg/ml, after 72 hrs
# Procedure: FIG. 13A Proliferation of HuH7 cells (human hepatocellular carcinoma) after treatment with different antibodies. HuH7 cells were treated with G2-2, G2-2 plus Cetuximab, mG2-2, mG2-2 plus Cetuximab, Cetuximab or control antibody each in increasing concentrations from 0.125 mg/ml to 2 mg/ml. Proliferating cells were measured after 72 hrs. […] This effect was independent of the Fc part i.e. human IgG1 in G2-2 or murin IgG2a in mG2-2 as described in Example 8.
# FIG. 13B Proliferation of HuH7 cells (human hepatocellular carcinoma), 4T1 cells (murin breast carcinoma) and CaCo2 cells (human colorectal carcinoma) after treatment with different antibodies. The three cell lines were treated with G2-1, G2-1 plus Cetuximab, Cetuximab, Bevacizumab or Bevacizumab plus Cetuximab 2 mg/ml total. Proliferating cells were measured after 72 hrs.
# Cells from the cell lines HuH7 (human hepatocellular carcinoma), 4T1 (murin breast carcinoma) and CaCo2 (human colorectal carcinoma) were cultured under standard conditions in Dulbecco's modified Eagle Medium (DMEM) supplemented with 10% fetal calf serum (FCS) at 37° C. with 5% CO2. […] Fluorescence was read at 615 nm to quantify cell viability. […]
# To test the effect of G2-1 on different cell lines, HuH7, 4T1 and CaCo2 cells were transferred to 96 well plates. […] Cell viability was quantified after 72 hours using PrestoBlue reagent and measuring the fluorescence at 615 nm.
molecule,measurement,setting,value
B1,"koff, measurement 1 + 2 mean",GP73 peptide: […],0.001108 s⁻¹
same,"kon, measurement 1 + 2 mean",GP73 peptide: […],260200 M⁻¹ s⁻¹
same,Kd,"GP73 peptide: […]; read-out: Kd, measurement 1 + 2 mean",4.29 nM
same,pH dependency of binding to peptide AA 36-55 of GP73,peptide AA 36-55 of GP73,Stable binding
same,cell proliferation / cell viability,[1],reduced depending on antibody concentration
